Substrate in data set [1]: CC(C)OC(=O)[C@H](C)N[P@](=O)(CO[C@H](C)Cn1cnc2c(N)ncnc21)Oc1ccccc1
The data set is described as follows: Ratio of kcat to Km for Cat A activity. The conditions noted are these: Homo sapiens.

Substrate in data set [2]: CC(C)OC(=O)[C@H](C)N[P@](=O)(CO[C@H](C)Cn1cnc2c(N)ncnc21)Oc1ccccc1
Put plainly: Activity of Cat A assessed as hydrolysis. The conditions noted are these: Homo sapiens.

B1: Lysosomal protective protein (Homo sapiens), P10619 (protein)
chain: MIRAAPPPLFLLLLLLLLLVSWASRGEAAPDQDEIQRLPGLAKQPSFRQYSGYLKGSGSKHLHYWFVESQKDPENSPVVLWLNGGPGCSSLDGLLTEHGPFLVQPDGVTLEYNPYSWNLIANVLYLESPAGVGFSYSDDKFYATNDTEVAQSNFEALQDFFRLFPEYKNNKLFLTGESYAGIYIPTLAVLVMQDPSMNLQGLAVGNGLSSYEQNDNSLVYFAYYHGLLGNRLWSSLQTHCCSQNKCNFYDNKDLECVTNLQEVARIVGNSGLNIYNLYAPCAGGVPSHFRYEKDTVVVQDLGNIFTRLPLKRMWHQALLRSGDKVRMDPPCTNTTAASTYLNNPYVRKALNIPEQLPQWDMCNFLVNLQYRRLYRSMNSQYLKLLSSQKYQILLYNGDVDMACNFMGDEWFVDSLNQKMEVQRRPWLVKYGDSGEQIAGFVKEFSHIAFLTIKGAGHMVPTDKPLAAFTMFSRFLNKQPY
In the case of B1, the kcat/Km in data set [1] came out at 2.9e+06 M⁻¹ s⁻¹. Also, in data set [2], the Km is 610 µM.

Broadly, the kcat/Km is the second-order rate constant that governs catalysis at low substrate concentration. What is called Km is the concentration of substrate that gives half-maximal velocity.

Values taken from ChEMBL document CHEMBL1142204, “Cathepsin A is the major hydrolase catalyzing the intracellular hydrolysis of the antiretroviral nucleotide phosphonoamidate prodrugs GS-7340 and GS-9131” (Antimicrob Agents Chemother, 2007).
